± gives the standard deviation of the averaged measurements.
Test system: ATP
Assay: switch fluorescence ratio, 500 uM ATP over buffer (Cy3 cluster intensity, sum of 5 cycles each) (fold (ratio)); higher = stronger signal-on switching upon ATP binding; sequences stand for … in TCGTCGGCAGCGTCAGATGTGTATAAGAGACAGTTTTTTTTTTTTTTTTTTTTTTTTT…TC
Conditions: aptamer strand: ATP DNA aptamer (quencher-CACCTGGGGGAGTATTGCGGAGGAAGG + anchor), 100 nM annealed; ATP concentration: 500 uM
In short: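 Per cluster, summed Cy3 intensity from the target cycles was divided by that from the buffer cycles to give the fluorescence ratio, then averaged per switch-domain sequence. Clusters outside 100-1000 RFU were excluded. The Cy3-labelled switching-strand clusters, on a modified Illumina MiSeq flow-cell, were annealed to 100 nM quencher-labelled ATP aptamer and imaged in selection buffer, then after 15 min with 500 uM ATP at 22 °C, for five cycles with NaOH stripping and re-annealing between them.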
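Also: ATP exposure 15 min at 22 °C before imaging.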

Row | Sequence | switch fluorescence ratio
1 | GTTTTTTAAA | 0.987 ± 0.04
2 | ACGGATGGGG | 0.997 ± 0.019
3 | AACGTTTTCT | 0.991 ± 0.012
4 | GAGTTGTTGG | 0.968 ± 0.024
5 | TGCCGTGGGT | 0.987 ± 0.04
6 | GCTCGGTTAG | 1.01 ± 0.018
7 | TTTCATCTCT | 1 ± 0.04
8 | AAAAGGGA | 0.982 ± 0.046
9 | TGTGGGTCCG | 1 ± 0.036
10 | TTTATTGAGC | 0.989 ± 0.039
11 | TATGTTGCAA | 1.01 ± 0.025
12 | AGGAAGTTAG | 0.961 ± 0.022
13 | AAGGAGTAGC | 1.04 ± 0.095
14 | GAACCTTCGT | 1.05 ± 0.096
15 | GGCTACGTTT | 1.05 ± 0.084
16 | TGGATACCCT | 1.0117 ± 0.00031
17 | CCGCAGCGGA | 2.12 ± 0.27
18 | GTACCCTGGA | 1.03 ± 0.03
19 | ACCATAATGG | 1.021 ± 0.01
20 | ACCCAATTTT | 1.03 ± 0.036
21 | TAAAAAAGCC | 1.03 ± 0.091
22 | ATATAACAGG | 1.03 ± 0.048
23 | CCTGGTGACG | 1.035 ± 0.002
24 | CAGGGATGGA | 0.981 ± 0.013
25 | TGGAGATTGT | 0.943 ± 0.032

Row | Sequence | switch fluorescence ratio
26 | AATTCAACAC | 1.05 ± 0.038
27 | GGACTTATTT | 0.986 ± 0.014
28 | CTTAGGACAG | 1.01 ± 0.035
29 | GGTGTCGTTT | 1.02 ± 0.024
30 | CCAGTTGGGA | 1 ± 0.032
31 | AGAATTTCAT | 1.01 ± 0.0045
32 | GGTTCGTGTC | 0.974 ± 0.016
33 | AAAAAAAACC | 1.4 ± 0.33
34 | AAATTCGGGC | 0.973 ± 0.014
35 | CGTATTTGTA | 1.01 ± 0.028
36 | ACAAAGCGCC | 1.06 ± 0.015
37 | GATCAGATGT | 0.958 ± 0.048
38 | CTAATTTTTT | 1.01 ± 0.025
39 | AGGTGCTGGG | 1.03 ± 0.013
40 | GGTGGGGGTA | 1.04 ± 0.042
41 | GCGGGGCTAG | 0.989 ± 0.024
42 | TGTTGTATTG | 0.9761 ± 0.0066
43 | TTTGTGCAGG | 1.04 ± 0.046
44 | TATGTAGATT | 1.017 ± 0.01
45 | GGCGGGATTG | 0.959 ± 0.041
46 | CGGGTGGCAG | 1.01 ± 0.061
47 | ATGGCGACGA | 1.027 ± 0.0095
48 | CCTTATTGTC | 0.997 ± 0.024
49 | GAGGAGCTGT | 0.999 ± 0.026
50 | AAGCTAAAAT | 0.996 ± 0.053

Row | Sequence | switch fluorescence ratio
51 | TGTAGTAGGT | 1.004 ± 0.002
52 | TTAAGGGCAG | 1.01 ± 0.03
53 | AGTGGTTTGT | 0.949 ± 0.017
54 | CATGAGTAGG | 0.979 ± 0.016
55 | CCAGGTAACA | 1.03 ± 0.012
56 | GTTGAAGAAA | 0.998 ± 0.072
57 | TCAGTCCGGA | 1.02 ± 0.024
58 | GGTCGTAGCC | 0.9719 ± 0.0084
59 | ATTAGTAGTT | 0.996 ± 0.057
60 | GAAAAGGTTC | 1.04 ± 0.044
61 | ATGGTGAAGG | 1.01 ± 0.066
62 | CATTAAAGTA | 1.1 ± 0.021
63 | TTTTTGATAT | 1.05 ± 0.056
64 | TTTTTTCAAT | 1.03 ± 0.029
65 | GTATGTAGGG | 0.995 ± 0.015
66 | TTGGTGGTCC | 0.999 ± 0.012
67 | GGAGCAAGGG | 3.37 ± 1.5
68 | ATGGAAGTGC | 0.9827 ± 0.0068
69 | ATTTGTAAAG | 1 ± 0.034
70 | CGGTACGAGC | 0.992 ± 0.046
71 | TCAATGCATG | 0.983 ± 0.035
72 | TAATGTTATT | 0.987 ± 0.017
73 | TTATGCGGTG | 1.0223 ± 0.00072
74 | GAAAGGAGGG | 1.03 ± 0.065
75 | TTTGCATTCA | 0.999 ± 0.038

Row | Sequence | switch fluorescence ratio
76 | ACTTGCCTGT | 1.005 ± 0.01
77 | TGGAGGGGGA | 0.999 ± 0.038
78 | TGCAAGCGAC | 2.61 ± 0.18
79 | TTCGGAGTCT | 0.985 ± 0.094
80 | CTTAGATAGT | 1.01 ± 0.0098
81 | AAATTGGACG | 1.08 ± 0.04
82 | CGTCGTATAA | 1.02 ± 0.021
83 | TACGAATATT | 1.025 ± 0.0046
84 | TTCTTTGTTG | 0.984 ± 0.046
85 | TCAGGGCGTG | 1 ± 0.026
86 | TAGCTCGGGG | 1.03 ± 0.035
87 | AGGTTTTGTG | 1.02 ± 0.044
88 | TTAGTAAGGT | 1.01 ± 0.059
89 | GTTTTTGACA | 0.989 ± 0.015
90 | TCGGTTCAGC | 1.011 ± 0.0024
91 | TTTAGTTTG | 1 ± 0.037
92 | GATATGATAC | 1.077 ± 0.008
93 | TTTTTTATAA | 1.01 ± 0.023
94 | TTGAGTGTTG | 1.01 ± 0.049
95 | TAATGCATTT | 1.01 ± 0.017
96 | TGCGGTAATT | 1.14 ± 0.16
97 | TTTGGGTGAT | 1.02 ± 0.022
98 | GGATGAATTG | 1.01 ± 0.018
99 | AGAGGCGTTA | 1.01 ± 0.025
100 | AATTTGATGG | 0.995 ± 0.013

Reference: the supplement of paper PMC10126150
